Assay [1] deals with T1, IL-17A重组蛋白(抗原), IL-17 antigen with a C-terminal 6×His tag, expressed in E. coli BL21 (human, UniProt Q16552 24-155, limits assumed).
T1 sequence: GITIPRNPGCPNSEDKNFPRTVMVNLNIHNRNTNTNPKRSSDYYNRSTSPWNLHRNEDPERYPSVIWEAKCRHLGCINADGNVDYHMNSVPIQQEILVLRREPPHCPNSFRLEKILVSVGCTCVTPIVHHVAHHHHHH
Nature of the assay: cell-based or functional assay.

Assay [2] has as its target T2, Biotin-IL-17A-His (UniProt Q16552 24-155, limits assumed, biotinylated (Biotin-IL-17A-His); site not stated).
T2 construct: not shown: His tag
T2 sequence (looked up): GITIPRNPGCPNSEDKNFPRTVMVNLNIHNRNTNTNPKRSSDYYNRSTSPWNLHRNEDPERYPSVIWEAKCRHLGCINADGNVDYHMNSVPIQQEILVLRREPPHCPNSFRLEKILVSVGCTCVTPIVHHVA
The assay can be described thus: ELISA: antibody coated at 2 ug/mL; Biotin-IL-17A-His titrated from 10 ug/mL, 5-fold, 7 points; HRP-streptavidin; OD450. For orientation: An ELISA detects its analyte on a solid surface through an enzyme-linked reagent.

Assay [3] concerns the target 生物素化的IL-17A of the ACRO Biosystems IL-17A[Biotinylated]:IL-17RA Inhibitor Screening ELISA Kit (EP-139) (UniProt Q16552). The assay can be described thus: blocking ELISA kit: IL-17RA coated, biotinylated IL-17A; G4-H10-MSC supernatant diluted 5-fold; inhibition = [OD450 positive well - OD450 sample well]/OD450 positive well.

Broadly, the EC50 is the concentration needed to bring the measured effect to its halfway point.

B1: 阳性对照抗体Ixekizumab (antibody, human IgG4 S228P, kappa, V domains shown)
VH: QVQLVQSGAEVKKPGSSVKVSCKASGYSFTDYHIHWVRQAPGQGLEWMGVINPMYGTTDYNQRFKGRVTITADESTSTAYMELSSLRSEDTAVYYCARYDYFTGTGVYWGQGTLVTVSS
VL: DIVMTQTPLSLSVTPGQPASISCRSSRSLVHSRGNTYLHWYLQKPGQSPQLLIYKVSNRFIGVPDRFSGSGSGTDFTLKISRVEAEDVGVYYCSQSTHLPFTFGQGTKLEIKR
notes: also called 阳性抗体
B1: the “IC50, 阻断Human IL-17A蛋白激活293F-IL-17RA-IL-17Rc-ACT1-NFκB-Luc报告基因细胞株” value in assay [1] is 2.23 nM. In assay [2], this molecule came in with an EC50 of 10.1 µg/mL.

B2: IL-17Nb secreted by G4-H10-MSC (G4-H10:Fc融合蛋白, VHH-(GGGGS)3-VHH-IgG4 Fc) (Fc fusion)
chain: QVQLVESGGGLVQPGGSLRLSCAASGEKLDYFAIGWFRQAPGKEREVVSCVTSSGSSTNYLSSVKDRFTISIDNAKNTVYLQMNSLKPEDTAIYYCASTILLCSDYISAFGTWGQGTQVTVASGGGGSGGGGSGGGGSEVQLVESGGGLVQPGGSLRLSCAASGFSIHIYAMGWYRQAPGKQRELVATITRGGVTNNADSVKGRFTISRDNAKNTAYLQMNSLKPEDTAVYYCNAGGTNGGYWGQGTQVTVSSAPEFLGGPSVFLFPPKPKDTLMISRTPEVTCVVVDVSQEDPEVQFNWYVDGVEVHNAKTKPREEQFNSTYRVVSVLTVLHQDWLNGKEYKCKVSNKGLPSSIEKTISKAKGQPREPQVYTLPPSQEEMTKNQVSLTCLVKGFYPSDIAVEWESNGQPENNYKTTPPVLDSDGSFFLYSRLTVDKSRWQEGNVFSCSVMHEALHNHYTQKSLSLSLGK
B2 gave a 结合抑制率 (IL-17A/IL17RA) in assay [3] of 60%.
